Laboratory results: patent publication US20170298146A1 (MODIQUEST B V, published 2017)
Non-standard residues stand in square brackets, D forms with d. No end group written: not given here. Cit = NC(=O)NCCC[C@H](N)C(=O)O

Experiments:
[1] = molecular target: T1, huPAD2 deiminated human recombinant histone H2B (human); experiment: ELISA, 0.016 ug/well
T1 construct: also called H2B/p2
Experimental: (§1) CFC-1 and CFC-0 were coated at the same concentration and served as positive and negative controls, respectively, for specific anti-citrulline reactivity and as coating controls. Non-coated wells were used to test for aspecific binding of the antibodies. […] Detection of bound anti-citrulline antibodies was performed by incubating the wells with rabbit-anti-human-HRP (1:2000) for one hour at RT followed by incubation with TMB substrate. The resulting OD (y-axis) is a measure for antibody binding. H1=recombinant histone 1; H1/p2=huPAD2 recombinant histone 1; H1/p4=huPAD4 recombinant histone 1 and so forth (x-axis).

[2] = molecular target: T2, huPAD4 deiminated human recombinant histone H3 (human); experiment: ELISA, 0.016 ug/well
T2 construct: also called H3/p4
Experimental: as §1

[3] = molecular target: T3, huPAD2 deiminated human recombinant histone H3 (human); experiment: ELISA, 0.016 ug/well
T3 construct: also called H3/p2
Experimental: as §1

[4] = molecular target: human recombinant histone H4 (human, UniProt P62805 2-103); experiment: ELISA, 0.016 ug/well
Experimental: as §1

[5] = molecular target: T4, huPAD2 deiminated human recombinant histone H2A (human); experiment: ELISA, 0.016 ug/well
T4 construct: also called H2A/p2
Experimental: as §1

[6] = molecular target: T5, Histone 2A citrulline-containing peptide 5 (human, also: biotin label); experiment: peptide ELISA, 0.4 ug/well
T5 peptide: VGRVH[Cit]LLRKGN
Experimental: as §1, with “Biotin and citrulline-containing peptides derived from histone 2A were immobilized on NEUTRAVIDIN®-coated 96-well ELISA plates (0.3 μg/well). CFC-1” for “CFC-1”, “controls respectively” for “controls, respectively,”, “binding.” for “binding. H1=recombinant histone 1; H1/p2=huPAD2 recombinant histone 1; H1/p4=huPAD4 recombinant histone 1 and so forth (x-axis).”
(§2) Ninety-six-well ELISA plates were coated with NEUTRAVIDIN® (0.1 μg/well) by overnight incubation at 4° C. Wells were washed five times with PBS-TWEEN®-20 (PBS-T) and blocked by a one-hour incubation with PBS-T+1% Bovine serum albumin (BSA) at room temperature (RT). After five more washes with PBS-T, wells were incubated for one hour at RT with histone-derived citrulline and biotin-containing peptides (0.3 μg/well). […] Wells were washed five times with PBS-T and incubated with rabbit-anti-human-HRP (1:2000) for one hour at RT followed by five washes with PBS-T and three wash steps with PBS. Wells were incubated for five minutes with TMB substrate before stopping the reaction with 2 M H₂SO₄. Optical density was measured by 450 nm and is a measure for the affinity of the antibodies used.

[7] = molecular target: T6, Histone 2A citrulline-containing peptide 10 (human, also: biotin label); experiment: peptide ELISA, 0.4 ug/well
T6 peptide: TRIIP[Cit]HLQLAI
Experimental: as §1, with “Biotin and citrulline-containing peptides derived from histone 2A were immobilized on NEUTRAVIDIN®-coated 96-well ELISA plates (0.3 μg/well). CFC-1” for “CFC-1”, “controls respectively” for “controls, respectively,”, “binding.” for “binding. H1=recombinant histone 1; H1/p2=huPAD2 recombinant histone 1; H1/p4=huPAD4 recombinant histone 1 and so forth (x-axis).”
as §2

[8] = molecular target: T7, Histone 2A citrulline-containing peptide 8 (human, also: biotin label); experiment: peptide ELISA, 0.4 ug/well
T7 peptide: AGNAA[Cit]DNKKTR
Experimental: as §1, with “Biotin and citrulline-containing peptides derived from histone 2A were immobilized on NEUTRAVIDIN®-coated 96-well ELISA plates (0.3 μg/well). CFC-1” for “CFC-1”, “controls respectively” for “controls, respectively,”, “binding.” for “binding. H1=recombinant histone 1; H1/p2=huPAD2 recombinant histone 1; H1/p4=huPAD4 recombinant histone 1 and so forth (x-axis).”
as §2

[9] = molecular target: T8, Histone 2A citrulline-containing peptide 7 (human, also: biotin label); experiment: peptide ELISA, 0.4 ug/well
T8 peptide: GNYSE[Cit]VGAGAP
Experimental: as §1, with “Biotin and citrulline-containing peptides derived from histone 2A were immobilized on NEUTRAVIDIN®-coated 96-well ELISA plates (0.3 μg/well). CFC-1” for “CFC-1”, “controls respectively” for “controls, respectively,”, “binding.” for “binding. H1=recombinant histone 1; H1/p2=huPAD2 recombinant histone 1; H1/p4=huPAD4 recombinant histone 1 and so forth (x-axis).”
as §2

[10] = molecular target: T9, Histone 2A citrulline-containing peptide 12 (human, also: biotin label); experiment: peptide ELISA, 0.4 ug/well
T9 peptide: NKLLG[Cit]VTIAQG
Experimental: as §1, with “Biotin and citrulline-containing peptides derived from histone 2A were immobilized on NEUTRAVIDIN®-coated 96-well ELISA plates (0.3 μg/well). CFC-1” for “CFC-1”, “controls respectively” for “controls, respectively,”, “binding.” for “binding. H1=recombinant histone 1; H1/p2=huPAD2 recombinant histone 1; H1/p4=huPAD4 recombinant histone 1 and so forth (x-axis).”
as §2

CFC-1 = molecular target: T10, CFC-1; experiment: peptide ELISA, 0.4 ug/well
T10 construct: Positive control for anti-citrulline reactivity; also called cfc1 XG
Experimental: as §1, with “Biotin and citrulline-containing peptides derived from histone 2A were immobilized on NEUTRAVIDIN®-coated 96-well ELISA plates (0.3 μg/well). CFC-1” for “CFC-1”, “controls respectively” for “controls, respectively,”, “binding.” for “binding. H1=recombinant histone 1; H1/p2=huPAD2 recombinant histone 1; H1/p4=huPAD4 recombinant histone 1 and so forth (x-axis).”
as §2

[11] = molecular target: T11, Histone 2A citrulline-containing peptide 11 (human, also: biotin label); experiment: peptide ELISA, 0.4 ug/well
T11 peptide: LQLAI[Cit]NDEELN
Experimental: as §1, with “Biotin and citrulline-containing peptides derived from histone 2A were immobilized on NEUTRAVIDIN®-coated 96-well ELISA plates (0.3 μg/well). CFC-1” for “CFC-1”, “controls respectively” for “controls, respectively,”, “binding.” for “binding. H1=recombinant histone 1; H1/p2=huPAD2 recombinant histone 1; H1/p4=huPAD4 recombinant histone 1 and so forth (x-axis).”
as §2

[12] = molecular target: T12, Histone 2A citrulline-containing peptide 2 (human, also: biotin label); experiment: peptide ELISA, 0.4 ug/well
T12 peptide: AKAKS[Cit]SSRAGL
Experimental: as §1, with “Biotin and citrulline-containing peptides derived from histone 2A were immobilized on NEUTRAVIDIN®-coated 96-well ELISA plates (0.3 μg/well). CFC-1” for “CFC-1”, “controls respectively” for “controls, respectively,”, “binding.” for “binding. H1=recombinant histone 1; H1/p2=huPAD2 recombinant histone 1; H1/p4=huPAD4 recombinant histone 1 and so forth (x-axis).”
as §2

[13] = molecular target: T13, Histone 2A citrulline-containing peptide 4 (human, also: biotin label); experiment: peptide ELISA, 0.4 ug/well
T13 peptide: QFPVG[Cit]VHRLLR
Experimental: as §1, with “Biotin and citrulline-containing peptides derived from histone 2A were immobilized on NEUTRAVIDIN®-coated 96-well ELISA plates (0.3 μg/well). CFC-1” for “CFC-1”, “controls respectively” for “controls, respectively,”, “binding.” for “binding. H1=recombinant histone 1; H1/p2=huPAD2 recombinant histone 1; H1/p4=huPAD4 recombinant histone 1 and so forth (x-axis).”
as §2

[14] = molecular target: T14, Histone 2A citrulline-containing peptide 3 (human, also: biotin label); experiment: peptide ELISA, 0.4 ug/well
T14 peptide: KSRSS[Cit]AGLQFP
Experimental: as §1, with “Biotin and citrulline-containing peptides derived from histone 2A were immobilized on NEUTRAVIDIN®-coated 96-well ELISA plates (0.3 μg/well). CFC-1” for “CFC-1”, “controls respectively” for “controls, respectively,”, “binding.” for “binding. H1=recombinant histone 1; H1/p2=huPAD2 recombinant histone 1; H1/p4=huPAD4 recombinant histone 1 and so forth (x-axis).”
as §2

[15] = molecular target: T15, Histone 2A citrulline-containing peptide 1 (human, also: biotin label); experiment: peptide ELISA, 0.4 ug/well
T15 construct: also called AAASGXGKQGGK
T15 peptide: AAASG[Cit]GKQGGK
Experimental: as §1, with “Biotin and citrulline-containing peptides derived from histone 2A were immobilized on NEUTRAVIDIN®-coated 96-well ELISA plates (0.3 μg/well). CFC-1” for “CFC-1”, “controls respectively” for “controls, respectively,”, “binding.” for “binding. H1=recombinant histone 1; H1/p2=huPAD2 recombinant histone 1; H1/p4=huPAD4 recombinant histone 1 and so forth (x-axis).”
as §2

[16] = molecular target: T16, Histone 2A citrulline-containing peptide 6 (human, also: biotin label); experiment: peptide ELISA, 0.4 ug/well
T16 peptide: VHRLL[Cit]KGNYSE
Experimental: as §1, with “Biotin and citrulline-containing peptides derived from histone 2A were immobilized on NEUTRAVIDIN®-coated 96-well ELISA plates (0.3 μg/well). CFC-1” for “CFC-1”, “controls respectively” for “controls, respectively,”, “binding.” for “binding. H1=recombinant histone 1; H1/p2=huPAD2 recombinant histone 1; H1/p4=huPAD4 recombinant histone 1 and so forth (x-axis).”
as §2

[17] = molecular target: T17, Histone 2A citrulline-containing peptide 9 (human, also: biotin label); experiment: peptide ELISA, 0.4 ug/well
T17 peptide: DNKKT[Cit]IIPRHL
Experimental: as §1, with “Biotin and citrulline-containing peptides derived from histone 2A were immobilized on NEUTRAVIDIN®-coated 96-well ELISA plates (0.3 μg/well). CFC-1” for “CFC-1”, “controls respectively” for “controls, respectively,”, “binding.” for “binding. H1=recombinant histone 1; H1/p2=huPAD2 recombinant histone 1; H1/p4=huPAD4 recombinant histone 1 and so forth (x-axis).”
as §2

B1: RhmAb2.102 (antibody, human IgG1, lambda)
heavy: not shown
light: QSVLTQPPSMSAAPGQKVTISCSGSSSNIGNNYVSWYQQVPGTAPKLLIYDDNKRPSGIPGRFSGSKSATSATLGITGLQAGDEADYYCGSWDDNLSVVLFGGGTKLTVLGQPKAAPSVTLFPPSSEELQANKATLVCLISDFYPGAVTVAWKADSSPVKAGVETTTPSKQSNNKYAASSYLSLTPEQWKSHRSYSCQVTHEGSTVEKTVAPTECS
notes: Human IgG1 lambda; also called Rhm2.102
Question: B1 was tested. Which OD [1] did it give?
Answer: 0.052 OD

Question: And the OD [2]?
Answer: 0.076 OD

Question: What about the OD [3] of the same binder?
Answer: 0.155 OD

Question: What about the OD [4] of the same binder?
Answer: 0.061 OD

Question: And the OD [5]?
Answer: 0.628 OD

Question: What about the OD [6] of the same binder?
Answer: 0.082 OD

Question: And the OD [7]?
Answer: 0.051 OD

Question: And the OD [8]?
Answer: 0.061 OD

Question: And the OD [9]?
Answer: 0.064 OD

Question: And the OD [10]?
Answer: 0.061 OD

Question: And the OD (CFC-1)?
Answer: 3.06 OD

Question: What about the OD [11] of the same binder?
Answer: 0.064 OD

Question: And the OD [12]?
Answer: 0.136 OD

Question: And the OD [13]?
Answer: 0.564 OD

Question: And the OD [14]?
Answer: 0.154 OD

Question: What about the OD [15] of the same binder?
Answer: 2.8 OD

Question: What about the OD [16] of the same binder?
Answer: 0.333 OD

Question: And the OD [17]?
Answer: 0.057 OD
